Results published in the nanobody polyreactivity screen of Harvey et al. (2022).

Test: yeast display, Sf9 membrane polyspecificity reagent, FACS + sequencing; frameworks hold sequencing errors
How it was run: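 Genes from sorted yeast were amplified by colony PCR, read by MiSeq 2 × 250 sequencing and filtered on CDR length. These cells carried a synthetic nanobody library in Saccharomyces cerevisiae BJ5465 and were sorted by FACS into low and high (top ~1%) gates on anti-HA and streptavidin fluorescence. Polyreactivity is labelled according to the gate of origin.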

Sequence	polyreactivity (PSR sort gate)
QVQLVESGGGLVQAGGSLRLSCAASGSTFWLYAMGWYRPAPGKERELVASISSRGGSTYYADSVKGRFTISRDYAKNTVYLQMNSLKPEDTAVYYCAAKDIRYDDDYWGQGTQVTVSS	low polyreactivity
QVQLVESGGGLVQAGGSLRLSCAPSGSTFYIYAMGWYRQAPGKERELVAAISTTDGTTYYADSVKGRFTISRDNAKNTVYLQMNSLKPEDTAVYYCAAEWFGSVQPAYDYWGQGTQVTVSS	high polyreactivity
QVQLVESGGGFVQAGGSLRLSCAASGSILSGYAMGWYRPAPGKERELVAAITSGGDTNYADSVKGRFTISRDNAKNTVYLQMNSLKPEDTAVYYCNRRGDFRIAYYDPMDYWGQGTQVTVSS	low polyreactivity
QVQLVESGGGLVQAGGSLRLSCAASGFTFTANGMGWYIQAPGKERELLAAINWSGSRTYYADSVKGRFTISRDNAKNTVYLQMNSLKPEDTAVYYCNTATSKSSYRHYDYWGQGTQVTVSS	high polyreactivity
QVQLVESGGGLVQAGGSLRLSCAASGRTFYRYSMGWYRQAPAKERELVAAISSSGGRTYYADSVKGRFTISRDNAKNTVYLQMNSLKPEDTAVYYCIKAYYYWYDWGQGTQVTVSS	high polyreactivity
QVQLVESGGGLVQAGGSLRLSCAASGSIFFEYAMGWYRQAPGKERALVASINRGGGSTYYADSVKGRFTISRDYAKNTVYLQMNILIPEDTAVYYCAAQWKYRQYYLDYYWGQGTQVTVSS	low polyreactivity
QVQLVESGGGLVQAGGSLRLSCAASGITFVLNARGWYRQAPGKERELVARISWSTGSTYYADSVKGRFTISRDNAKNTVYLQMNSLKPEDTAVYYCAVDYNYQSLYVVVEGEYWGQGTQVTVSS	low polyreactivity
QVQLVESGGGLVQAGGSLRLSCAASGFIINGNDMGWYRQAPGKERELVAAISSSGGSTYYADSVKGRFTISRDNAKNTVYLQMNSRTPEDSAVYYCARRGKQVSGRYYYWGQGTQVSVSS	high polyreactivity
QLQLVESGAGLVQAGGSLRLSCAASGSTFTVYGMAWYRQAPGKERELVAAITYSGGSTYYADSVKGRFTISRDNAKHTVYLTMNSLKPEDTGVYYCAAAGSQYYRRWYDYWGQGTQVTVSS	low polyreactivity
QVQLVESGGGLVQAGGSLRLSSAASGGIFSRYGMGSYRQAPGKERELVAAITWSGGRTYYADSVKGRFTISRDNAKNTVYLQMNSLKPEETAVYYCAALETSFSSVGYEYWGQGTQVTVSS	high polyreactivity
QVQLVESGGGLVQAGGSLRLSCAASGITFRFYAMGWYRQAPGKERELVAVISRGGGTTYYADSVKGRFTISRDNAKNTVYLQMNSLKPEDTAVYYCNAVIAWYRSDEYDYWGQGTQVTVSS	high polyreactivity
QVQLVESGGGLVQAGGSLRLSCAASGRIFRYYAMGWYRQAPGKERELVAAIDSVGSTYYADSVKGRFTISRDNAKNTVYLQMNSLKPEDTAVYYCNARVYTFPTRYDYWGQGTQVTVSS	high polyreactivity
QVQLVESGGGLVQAGGILRLSCAASGRTFTPYALGWYRQAAGKERDLVAAISSRGGSTYYADSVKGRFTISRDYAKNTVDLQMNSLKPEDTAVYYCNATQYPAADRYTNNYGGGFDYWGQGTQVTVSS	low polyreactivity
QVQLVESGGGLVQAGGSLRLSCAASGRTFSQYAMGWYRQAPGKERELVAAISWSGGSTYYADSVKGRFTISRDNAKNTVYLQMNSLKPEDTAVYYCAAVGKGSARSSYPVLYDYCGQGTQVTVSS	low polyreactivity
QVQLVESGGGLVQAGGSLRLSCAASGRIVARNAMRWYSQAPGKERELVGAITYSGGSTYYADSVKGRFTISRDNAKNTVYLPMISLKPEDTAVYYCAAETSKRGRRYYYWGQGTQVTVSS	high polyreactivity
QVQLVESGGGLVQAGGSLRLSCAASGRIFRIYAMGWYRQAPGKERELVASISDRGTRTYYADSVKGRFTISRDNAKNTVYLQMNSLKPEDTAVYYCAASTYTKFHTYYKSQASDYWGQGTQVTVSS	high polyreactivity
QVQLVESGGGLVQAGGSLRLSCAATGSIFQGNVMGWYRPAPGKERELVAGISSSGGRTYYADSVKGRFTISRDNAKNTVYLQMNSLIPEDTAVYYCNAVPSNRQLDYDYWGQGTLVTVSS	high polyreactivity
QVQLVESGGGLVQAGGSLRLSSADSGLTIKYYAMGWYRQAPGKERELVASILQSGSSTYYADSVKGRFTISRDYAKNTFYLQMNSMKPEDTAVYYCSAPRYCRSYGYDYWGQGTQVTVSS	high polyreactivity
QVQLVESGGGLVQAGGSLRLSCAASGGTFRYYAMAWYRQAPGKERELVARIRYNGGSTYYADSVKGRFTISRDNAQYTVYLQMNSLKPEDTAVYYCAGRRTGGMGYWGQGTQVTVSS	high polyreactivity
QVQLVESGGGLVQAGGSLRLSCAPSGGTFPFNAMGWYRQAPGKERELVAAISGRSGRTYYADSVKGRFTISRDNAKNTVDLQMNRLKPEDTAVYYCAARRWRPYDYWGQGTQVTVSS	high polyreactivity
QVQLVESGGGLVQAGGSLRLSCAASGLTFNVYAMGWYRQAPGKERELVASITKRGGSTYYADSVKGRFTISRDNAKNTVYLEMNSLKPEDTAVYYCAADGLTGSKYRATGYYWGQGTQVTVSS	high polyreactivity
QVQLVESGGGLVQAGGSLRLSCAASGSIFYYYVRGWYRQAPGKEREFVAAISWGGDSTYYADSVKGRFTISRDNAKNTFYLQMNSLQPEDTAVYYCNADYPWSVVGYDYWAQGTQVTVSS	low polyreactivity

Sequence	polyreactivity (PSR sort gate)
QVQLVESGGGLVQAGGSLRLSCAASGFTFRYYAMGWYRQAPGKERELVATITGYGGSTYYADSVKGRFTISRDNAKNTVYLQMNSLKPEDTAVYYCNTVWYTDVRYTRFYYWGQGTQVTVSS	high polyreactivity
QVQLVESGGGLVQAGGSLRLSCAASGRTFTINAMGWYRQAPGKERELVATIRVSGGSTYYADSVKGRFTISRDNAKNTVYLQMNSLKPEDTAVYYCAKGGTYFYAPAYDYWGQGTQVTVSS	low polyreactivity
QVQLVESGGGLFQEGGSLRLSCAASGRIFGPYDMGWYRQAPGKERELVAAISQRGGTTYYADSVKGRFTISRDNAKNTVYLQMNSLKPEVTAVYYCAPKTYGWGQGTQVNVSS	high polyreactivity
QVQLVESGGRLVQAGGSLRLSCAASGSTFVQNAMGWYRQATGKERELVAAISKSGGRTYYADSVKGRFTISRDNAKNTVYLQMNSLKPEDTAVYYCAAVTVASPTRMDYWGQGTQVTVSS	high polyreactivity
QVQLVESGGGLVQAGGSLRLSCAASGSILSHYAMGWYRQAPGKERELVAAITTRGGSTYYADSVKGRFTISRDNAKNTVFLQMNSLKPEDTAVYYCAARGGVDSAYYGYWGQGTQVTVSS	high polyreactivity
QVQLVESGGGLVQAGGSLRLSCAASGSIFSGNAMGWYRQAPGKKGVGCRYYSCWFYDYADSVKGRFTISRDNAKNTVYLQMNSLKPEDTAVYYCAKSNYVRSEFNYWGQGTQVTVSS	low polyreactivity
QVQLVESGGGLVQAGGSLRLSSAASARIFGYYVMGWYRQAPGKERELVARIRSGGNTYYADSVKGRFTISRDNAKNTVYLQMNSLKPEDTAVYSCNADPRTGWYIYDYWGQGTQVTVSS	high polyreactivity
QVQLVESGGVLVQAGGSLRLSCAASGRIFSIYGMGWYRQAPVKEREFVASITYSGGSTYNADSVKGRFTISRDTAKNTVYLQMKSLKPEDTAVYYCAKYVFSAYDYWGQGTQVTVSS	low polyreactivity
QVHLVESGGGLVQAGGSLRLSCAASGSSFRYYAMGWYRQAPGKERELVAAISGSGGRTYYADSVKGRFTISRDNEKNNVYLQMNSLKPEDTAVYYCAAQSGYYDSAYGYWGQGTKVTVSS	high polyreactivity
QVQLVESGGGLVQAGGSLRLSCAASGSIFFYYAMGWYRQAPGKERELVAAINSDGSTNYADSVKGRFTISRDNAKNTVFLQMNSLKPEDTAVYYCAAEWFPYRWGYGYWGQGTEVTVSS	low polyreactivity
QVQLVESGGGLDQAGGSLRLICAASGITIEYYAMAWYRTAPGKERELVAAISSGGGSTYYADSVKGRFTISRDNAKNSVYLQMISLKPEDTAVYYCAADIVSSPSSYVPPGDYWGQGTQVTVSS	low polyreactivity
QVQLVESGGGLVQAGGSLRLSCAASGRTFRGYAMGWYRQAPGKERELVAAITSGGSTNYADSVKGRFTISRDNAKNTVYLQMNSLKPEDTAVYYCAAGRSTGQYRYYYWGQGTQVTVSS	high polyreactivity
QVQLVESGGGLVQAGGSLRISCASSGSTFGYYAIGWYRQAPGKESELVAAIRRSGGRTYYADSVKGRFTISRDNAKNTVYLQLNSLKPEDTAVYYCAKDGYSRRNSQKTPYDYWGQGTQVTVSS	low polyreactivity
QVQLVESGGGLVQAGGSLRLSCAASGGIFGYYAMGWYRQAPGKEREFVAAISVSGGSTYYADSVKGRFTISRDNAKNTVYLQMNSLKPEDTAVYYCAADVIVLRPGEYDYWGQGTQVTVSS	low polyreactivity
QVQLVESGGGLVQAGGSLRLSCAASGSTFLGNAMGWYRQAPGKERELVAGITSGGTTNFADSVKGRFTISRDNAKNTVYLQMNSLKPEDTAVYYCNADVWIGQRLDPGYDFDYWGQGTQVTVSS	low polyreactivity
QVQLVESGGGFVQAGGSLRLICAASGRIFGYYAMAWYRQAPGQERELVAAINWGGGITYYADSVKGRFTISRDNAKNTVYLQMNSLKPEDTAVYYCATDYKLVYSIYDYWGQGTQVTVSS	low polyreactivity
QVQLVESGGGLVQAGGSLRLSCAASGSIYDSYDMGWYRQAPGKERELVAAITSGGSTNYADSVKGRFTISRDNAKITVYLQMNSLKPEDTAVYYCAAYYWYPVYYGYDYWGQGTQVTVSS	low polyreactivity
QVQLVESGGGLVQAGGSLRLSCAASGLTFADYAMGWYRQAPVKERELVAAISSSDTSTYYADSVKGRFTISRDNAKNTVYLQMNSLKPEDTAVYYCAADEGYVWPYYGWGFGKYDYWGQGTQVTVSS	low polyreactivity
QVHLVESGGGLVHAGGSLRLSCAASGIIFSYYAMGWYRQAPVKERELVAAISRSGVRTYFSDSVKGRFTISRDNAKNTVYLQMNSLKPEDTSVYYCNAEFSPYPYDYWGQGTQVTVSS	high polyreactivity
QVQLVESGGGLVQAGGSLRISCAASGSTFVRNAMGWYRQAHGKERELVAAISVDGSSTYDADSVKGRFTISRDNAKNTVYLQMNSLKREDTAVYYCNADWEYRDFYDITYDYWGQGTQVTVSS	low polyreactivity
QVQLVESGGGLVQAGGSLRLSCAASGFTFRYYAMGRSRQAPGKERELVAAITGSGVNTYYADSVKGRFTISRDNAKNTVYLQMNSLKPEDTAVYYCAAESESDPLFDRYYWGQGTQVTVSS	high polyreactivity
